Measured values from publication PMC7642414, “R-spondins are BMP receptor antagonists in Xenopus early embryonic development” (Nature Communications, 2020).

T1: recombinant human RSPO3 (human, UniProt Q9BXY4 22-272)
T1 construct: R-spondin 3, human, recombinant protein; source: bought: Peprotech 120-44
T1 sequence (looked up): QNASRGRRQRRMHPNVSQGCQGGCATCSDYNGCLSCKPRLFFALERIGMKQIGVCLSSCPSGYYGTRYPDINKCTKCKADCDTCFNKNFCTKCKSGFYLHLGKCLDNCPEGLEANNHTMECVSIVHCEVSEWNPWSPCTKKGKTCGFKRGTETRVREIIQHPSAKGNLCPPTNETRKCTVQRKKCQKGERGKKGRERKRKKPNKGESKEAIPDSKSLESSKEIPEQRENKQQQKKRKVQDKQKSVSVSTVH


Columns and labels:
recombinant human RSPO2 [1] = target: T2, recombinant human RSPO2 (human, UniProt Q6UXX9 22-243); experiment: solid-phase in vitro binding assay (AP fusion read-out); ternary complex: recombinant RSPO protein on plate-coated ZNRF3 Fc chimera (4-6 h), read out through BMPR1A^ECD-AP; conditions: both partners purified
T2 construct: R-spondin 2, human, recombinant protein; source: bought: Peprotech 120-43

recombinant human RSPO3 = target: T1, recombinant human RSPO3; experiment: as above; conditions: both partners purified
recombinant human RSPO2 [2] = target: T2, recombinant human RSPO2; experiment: solid-phase in vitro binding assay (AP fusion read-out); Scatchard plot; RSPO2 recombinant protein (Peprotech 120-43) and BMPR1A^ECD-AP; conditions: one partner purified

T2 sequence (Q6UXX9 22-243): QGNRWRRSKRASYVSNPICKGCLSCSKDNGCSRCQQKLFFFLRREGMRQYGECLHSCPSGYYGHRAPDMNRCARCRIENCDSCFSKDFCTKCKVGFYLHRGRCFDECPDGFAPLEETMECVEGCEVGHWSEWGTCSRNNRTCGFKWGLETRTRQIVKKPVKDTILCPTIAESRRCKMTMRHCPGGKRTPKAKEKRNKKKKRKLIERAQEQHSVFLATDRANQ

Row | Binder | binding result (recombinant human RSPO2 [1]) | binding result (recombinant human RSPO3) | Kd (recombinant human RSPO2 [2]) [nM]
1 | recombinant human ZNRF3 Fc Chimera protein (Fc fusion, UniProt Q9ULT6 56-219, looked up, Zinc and ring finger 3 (ZNRF3), human, as Fc chimera; source: bought: R&D systems 7994-RF) KETAFVEVVLFESSPSGDYTTYTTGLTGRFSRAGATLSAEGEIVQMHPLGLCNNNDEEDLYEYGWVGVVKLEQPELDPKPCLTVLGKAKRAVQRGATAVIFDVSENPEAIDQLNQGSEDPLKRPVVYVKGADAIKLMNIVNKQKVARARIQHRPPRQPTEYFDM | binds | binds | –
2 | BMPR1A^ECD-AP (domain or fragment, human, UniProt P36894 24-152, looked up, Extracellular domain of BMPR1A/ALK3; also called extracellular domain of BMPR1A; source: HEK293T, transiently transfected, conditioned medium) QNLDSMLHGTGMKSDSDQKKSENGVTLAPEDTLPFLKCYCSGHCPDDAINNTCITNGHCFAIIEEDDQGETTLASGCMKYEGSDFQCKDSPKAQLRRTIECCRTNLCNQYLQPTLPPVVIGPFFDGSIR | – | – | ~4.8
